{"source": "patent US5650488A", "about": "“Polypeptide inhibitor of the replication of HSV” (British Technology Group Limited, priority 1991, dated 1997)", "molecular_target": "T1, TRF/Vmw 65/CFF complex (Homo sapiens, UniProt P51610)", "T1 construct": "A nuclear extract of HeLa cells was prepared; from tissue; host or cells: HeLa cell nuclear extract (TRF, CFF)", "T1 sequence (P51610 whole entry, one chain of several)": "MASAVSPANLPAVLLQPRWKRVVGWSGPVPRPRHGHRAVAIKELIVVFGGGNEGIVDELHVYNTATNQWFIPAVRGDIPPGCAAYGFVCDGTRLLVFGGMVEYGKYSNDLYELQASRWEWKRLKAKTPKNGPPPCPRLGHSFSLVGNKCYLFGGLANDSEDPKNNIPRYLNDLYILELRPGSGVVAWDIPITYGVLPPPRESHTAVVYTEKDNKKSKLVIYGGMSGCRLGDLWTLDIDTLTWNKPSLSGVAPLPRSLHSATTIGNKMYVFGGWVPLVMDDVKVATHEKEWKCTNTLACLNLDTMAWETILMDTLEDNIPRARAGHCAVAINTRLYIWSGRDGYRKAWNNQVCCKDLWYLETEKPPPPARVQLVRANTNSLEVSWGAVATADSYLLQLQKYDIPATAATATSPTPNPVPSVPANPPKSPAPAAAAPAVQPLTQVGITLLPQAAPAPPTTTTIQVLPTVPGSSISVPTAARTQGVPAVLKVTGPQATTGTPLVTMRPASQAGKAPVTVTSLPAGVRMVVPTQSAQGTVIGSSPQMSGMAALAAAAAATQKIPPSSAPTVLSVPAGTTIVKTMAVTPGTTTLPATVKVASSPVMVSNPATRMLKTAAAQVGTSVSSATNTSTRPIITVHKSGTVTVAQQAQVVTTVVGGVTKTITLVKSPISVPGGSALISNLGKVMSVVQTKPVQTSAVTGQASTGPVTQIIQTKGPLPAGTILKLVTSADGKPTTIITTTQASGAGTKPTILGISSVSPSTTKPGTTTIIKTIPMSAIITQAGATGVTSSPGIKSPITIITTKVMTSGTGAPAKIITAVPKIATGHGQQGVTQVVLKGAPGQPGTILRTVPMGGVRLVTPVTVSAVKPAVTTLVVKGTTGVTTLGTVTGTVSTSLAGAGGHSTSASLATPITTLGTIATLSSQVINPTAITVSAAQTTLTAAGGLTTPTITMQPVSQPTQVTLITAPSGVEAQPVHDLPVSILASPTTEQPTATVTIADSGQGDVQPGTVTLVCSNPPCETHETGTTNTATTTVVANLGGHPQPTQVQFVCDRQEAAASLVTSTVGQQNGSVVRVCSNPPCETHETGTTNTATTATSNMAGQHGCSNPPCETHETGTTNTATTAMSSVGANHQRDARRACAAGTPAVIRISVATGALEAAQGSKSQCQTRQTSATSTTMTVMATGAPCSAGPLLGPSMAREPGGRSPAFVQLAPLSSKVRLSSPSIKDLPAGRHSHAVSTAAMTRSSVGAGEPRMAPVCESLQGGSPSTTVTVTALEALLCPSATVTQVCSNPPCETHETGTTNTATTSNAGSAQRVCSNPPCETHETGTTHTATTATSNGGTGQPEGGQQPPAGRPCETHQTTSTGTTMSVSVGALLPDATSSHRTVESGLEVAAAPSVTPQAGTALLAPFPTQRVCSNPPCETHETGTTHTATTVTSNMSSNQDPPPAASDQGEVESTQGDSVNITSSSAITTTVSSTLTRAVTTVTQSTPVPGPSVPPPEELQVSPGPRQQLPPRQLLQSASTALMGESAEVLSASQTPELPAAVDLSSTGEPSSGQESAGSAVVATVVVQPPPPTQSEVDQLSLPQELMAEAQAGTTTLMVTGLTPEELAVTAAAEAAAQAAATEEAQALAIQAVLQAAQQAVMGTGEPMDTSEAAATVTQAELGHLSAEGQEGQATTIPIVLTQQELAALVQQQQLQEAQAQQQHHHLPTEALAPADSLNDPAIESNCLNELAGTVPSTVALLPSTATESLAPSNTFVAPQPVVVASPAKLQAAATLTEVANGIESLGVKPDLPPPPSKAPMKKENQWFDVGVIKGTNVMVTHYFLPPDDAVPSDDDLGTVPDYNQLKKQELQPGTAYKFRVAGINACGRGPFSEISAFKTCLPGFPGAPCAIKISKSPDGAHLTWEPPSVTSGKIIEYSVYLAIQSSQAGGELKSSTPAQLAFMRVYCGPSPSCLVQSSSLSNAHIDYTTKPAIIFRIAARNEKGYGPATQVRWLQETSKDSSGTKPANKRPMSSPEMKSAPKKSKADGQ", "experiment": "Peptide inhibition of quaternary complex assembly (gel retardation with HeLa nuclear extract, purified Vmw 65 and 32P-labelled TAATGARAT probe)", "type": "biochemical, HSV-1", "parameters": "key to Level of Inhibition: \"+++\" indicates a high level inhibition of complex formation; \"++\" indicates a lower level and so on; \"-\" indicates no inhibition of complex formation", "method": "A nuclear extract of HeLa cells was prepared exactly as described by Dignam et al., Nucl. Acids. Res. 11 1475-1489, (1983) (This is a standard protocol for the preparation of extracts containing cellular DNA binding proteins). Polypeptides from Vmw 65 amino acids were synthesised by Cambridge Research Biochemicals Ltd., Cambridge, UK, under contract, in accordance with the sequence set forth above. 1 μl volumes of phosphate buffered saline containing increasing amounts (100 ng, 500 ng, 1 μg, 2.5 μg, 5μg) of the polypeptide (amino acids 360-367) was added to a standard amount of HeLa cell nuclear extract (1 μl extract per 2 μg polypeptide). After incubation at 20° C. for 30 minutes a 1 μl sample of Vmw 65 protein, purified as described by P. O'Hare et al., EMBO J. 7: 4231-4238 (1988) was added to the extract polypeptide mixtures and incubation continued for a further 5 minutes in a buffer containing 25 mM HEPES pH 7.9, 1 mM EDTA, 5 mM DTT, 100 mM KCl, 0.05% NP40 10% glycerol, and 2 μg of salmon sperm DNA. A ^32 P radioactively labelled probe present in excess and encompassing nucleotides -171 to -149 (numbered starting upstream of the site of mRNA transcription: the TAATGARAT sequence is at -162 to -154) of the immediate-early IE110K gene of HSV-1 was then added and incubation continued for a further 25 minutes. […]"}
{"substance": "355-367: polypeptide of region 355-367 of Vmw 65; 360-367 inhibitory region with 355-359 flanking stabilizing region", "values": [{"measurement": "Level of Inhibition", "setting": "inhibition of complex formation, experiment of Example 1 repeated with various Vmw-65 polypeptides", "value": "+++"}, {"measurement": "inhibiting complex formation (result in words)", "setting": "summary of the Table", "value": "effective"}]}
